Measured values taken from doi:10.1101/2020.12.28.424526 (bioRxiv, 2020).

T1: recombinant XRN-2 (C. elegans, UniProt Q9U299 1-975)
T1 sequence (looked up): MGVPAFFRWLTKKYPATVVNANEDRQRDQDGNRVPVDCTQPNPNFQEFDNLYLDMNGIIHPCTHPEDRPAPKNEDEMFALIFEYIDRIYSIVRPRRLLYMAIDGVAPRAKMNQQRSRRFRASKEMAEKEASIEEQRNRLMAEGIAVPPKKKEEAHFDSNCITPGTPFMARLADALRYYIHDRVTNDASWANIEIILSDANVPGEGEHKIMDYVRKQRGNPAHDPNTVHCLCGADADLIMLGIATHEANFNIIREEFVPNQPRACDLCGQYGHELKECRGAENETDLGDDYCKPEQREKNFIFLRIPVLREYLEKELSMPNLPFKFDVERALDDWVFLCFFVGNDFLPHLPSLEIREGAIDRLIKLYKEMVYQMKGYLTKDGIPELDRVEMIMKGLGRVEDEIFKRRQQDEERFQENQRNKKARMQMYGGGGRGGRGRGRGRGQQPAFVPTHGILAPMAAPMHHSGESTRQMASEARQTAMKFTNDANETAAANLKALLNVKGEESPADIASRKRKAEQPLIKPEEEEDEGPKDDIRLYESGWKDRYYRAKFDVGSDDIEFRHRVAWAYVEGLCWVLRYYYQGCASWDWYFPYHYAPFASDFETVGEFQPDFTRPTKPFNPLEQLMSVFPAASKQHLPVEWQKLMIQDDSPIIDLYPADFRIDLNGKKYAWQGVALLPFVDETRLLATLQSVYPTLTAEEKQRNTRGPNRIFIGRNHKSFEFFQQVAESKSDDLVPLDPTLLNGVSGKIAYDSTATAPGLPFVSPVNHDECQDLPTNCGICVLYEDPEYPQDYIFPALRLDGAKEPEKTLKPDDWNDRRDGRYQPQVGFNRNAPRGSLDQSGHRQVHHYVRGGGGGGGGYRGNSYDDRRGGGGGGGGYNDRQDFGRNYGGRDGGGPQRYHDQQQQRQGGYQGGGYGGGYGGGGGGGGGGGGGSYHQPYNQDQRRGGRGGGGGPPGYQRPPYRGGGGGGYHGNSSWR

T2: 5'-3' exoribonuclease-2 (XRN-2) (C. elegans (endogenous in worm lysate), UniProt Q9U299 1-975)
T2 sequence (looked up): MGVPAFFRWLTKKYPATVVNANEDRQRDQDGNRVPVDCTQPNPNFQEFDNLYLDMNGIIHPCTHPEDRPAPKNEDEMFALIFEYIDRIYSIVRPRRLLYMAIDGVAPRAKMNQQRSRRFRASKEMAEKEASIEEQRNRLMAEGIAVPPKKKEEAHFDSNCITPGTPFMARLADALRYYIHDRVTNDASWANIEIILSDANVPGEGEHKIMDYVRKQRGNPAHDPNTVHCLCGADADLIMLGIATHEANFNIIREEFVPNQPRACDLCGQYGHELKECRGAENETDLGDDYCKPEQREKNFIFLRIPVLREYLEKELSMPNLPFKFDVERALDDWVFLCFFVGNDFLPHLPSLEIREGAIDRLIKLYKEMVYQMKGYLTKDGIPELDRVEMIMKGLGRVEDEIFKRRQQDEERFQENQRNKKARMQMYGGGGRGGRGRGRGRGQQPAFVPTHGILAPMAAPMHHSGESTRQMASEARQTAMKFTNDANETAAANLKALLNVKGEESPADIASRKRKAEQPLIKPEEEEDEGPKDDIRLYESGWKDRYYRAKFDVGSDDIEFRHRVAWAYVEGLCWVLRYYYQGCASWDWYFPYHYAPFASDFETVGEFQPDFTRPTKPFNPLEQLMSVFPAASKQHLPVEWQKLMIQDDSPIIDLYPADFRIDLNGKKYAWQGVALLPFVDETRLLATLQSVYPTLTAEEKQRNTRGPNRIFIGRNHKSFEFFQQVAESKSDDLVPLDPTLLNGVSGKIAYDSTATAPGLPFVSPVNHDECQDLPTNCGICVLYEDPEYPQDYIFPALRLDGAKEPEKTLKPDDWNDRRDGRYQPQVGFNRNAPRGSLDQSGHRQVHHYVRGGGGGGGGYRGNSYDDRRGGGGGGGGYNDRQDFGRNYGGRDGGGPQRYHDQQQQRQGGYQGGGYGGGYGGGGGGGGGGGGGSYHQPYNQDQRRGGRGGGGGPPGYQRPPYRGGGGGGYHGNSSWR


Experiments:
[1] = biological target: 5'-3' exoribonuclease-2 (XRN-2) (C. elegans (endogenous in worm lysate)) (UniProt Q9U299); assay: SDS-PAGE of the RNA-affinity purified complex
recombinant XRN-2 = biological target: T1, recombinant XRN-2
[2] = biological target: T2, 5'-3' exoribonuclease-2 (XRN-2); assay: SDS-PAGE of the RNA-affinity purified complex

Molecule	stoichiometry N [1]	stoichiometry N (recombinant XRN-2)	also measured
miRNasome-1.4 (B0024.11) (natural protein)	1		
NOL-58 (natural protein)	1		
partner of XRN two-1 (PAXT-1) (natural protein, C. elegans (endogenous in worm lysate), UniProt Q21738 1-335, looked up) MGKLEDVEAEKKLWESDDAWELRKAFMLAHYDDYPKIQLQCLSQLFINVTLLGCEYSQTLMQKIRTMGAGIAANKDRTKTGSYVKASAAKKRQAVKTSDLEGASDESKKVKMEKSPSPVARESFDERLGKLKASLAMTPHHLTGEQMMKTATNSCLMKWHVNKINQKIEITIDRYVAFRHTFSQYCVDPRDCAINTLIESILSCDAAVHEESYEIRFDGVPVDECYAKSVTRRLAKIKSAVSNGAHTVKGLTTYLDAVNMSMIQNTQKLEGWSQQLDLVTADLLLSSRVLSSTECTKPAMATIANQMSEDVCQLILNDKINVINSMKSHSSLAFQ			stoichiometry N [2]: 1

More lines, main results first:

stoichiometry N [1]	stoichiometry N (recombinant XRN-2)	Molecule	also measured
	1	recombinant NOL-58 (natural protein, C. elegans, UniProt O45012 1-487, looked up) MLVLFEVAAGYAVFKLSNEKKLKNVDNIWEEFSTAEKAQENLQLVSFKKFKTTAGAVEATSEITEGKLSKTLKKLLKSSVDETEKLAVGDAKLGNLIKEKLSLNCVHDSSINELMRGVRAHIEDLLAEHKEEMNAMNLAVAHSLARYKVKFNPEKIDTMIVQAVSLLDDLDKELNNYVMRVREWYGWHFPELGKTIQDHQAYAKIIKAIGMRQNCINTDLSSILPEELEEKVKEDAEISMGTDISDIDLIHIKGLCDQVIELSAYRAQLFDYLKNRMTALAPNLTVLLGELVGARLISHAGSLVSLAKAPASTIQILGAEKALFRALKTKKDTPKYGLIYHAQLITQAPPKVKGKMARKLAAKCSLATRIDALSDESATNEIGIECRAALENVLRTESERGPSKNKSFGSHRHDKYEFKSETYEYDASADTPASRKHKRFDDNEESTNAIKKMKIEEVKEEDEAEPEKKKKKKEKKAKKADTDSDEE	
	1	recombinant miRNasome-1.4 (natural protein, C. elegans, UniProt Q17426 1-577, looked up) METEFGLTEYASEHTITPVPCLLKEMYSDFIVQEILADHTVLAIPSPDVVLESTGSKKEDIEIEECVAKPDCISEETLAALNDRFSTKGDPVLVKVDDLSKEDRKSIHHFIRERYAGVLITETKEDGILVSHGHTKSSRKRKLWDEKVPKECHFTICKENKETSFACQLIAKFLNVGPNNIRTHGIKDKRAVTSQRVSVTKVHERTILDLNSKLRGIRVFGCEYKDDPVQMGAHWGNRFSIVLRSLPDDSEQLLHQRLETFQNTGFINYFGTQRFGSRSSTTAEIGLAIVKRDWEKAVKMIMTNAMPDHLGYGSVGYAAKCFSQTGDARKAFSKLKGAQAFATVEGNILKCLSKGGTWQNCITEAIPIQSRSLYVHAYQSLIWNKVASRRVKEYGTRVHESDVGANGFSLGEHATHYDIHIPLPGENLPFEGSYGAKWISELLEEDGLTQSSFTALKDRFSLGESSRCLFVEAKELKWKFIRYGNARDLLQDGLQTRAIPEAEQKGPLLALQIQFSLISGSYATVALREVTGSDMGKKAMRDASFKTRGDDEKTEENVLEEKGSDDANELNLVSEDQ	
	1	recombinant PAXT-1 (natural protein, C. elegans, UniProt Q21738 1-335, looked up) MGKLEDVEAEKKLWESDDAWELRKAFMLAHYDDYPKIQLQCLSQLFINVTLLGCEYSQTLMQKIRTMGAGIAANKDRTKTGSYVKASAAKKRQAVKTSDLEGASDESKKVKMEKSPSPVARESFDERLGKLKASLAMTPHHLTGEQMMKTATNSCLMKWHVNKINQKIEITIDRYVAFRHTFSQYCVDPRDCAINTLIESILSCDAAVHEESYEIRFDGVPVDECYAKSVTRRLAKIKSAVSNGAHTVKGLTTYLDAVNMSMIQNTQKLEGWSQQLDLVTADLLLSSRVLSSTECTKPAMATIANQMSEDVCQLILNDKINVINSMKSHSSLAFQ	
